No end group written: not given here. *: point of attachment. FITC = O=C1OC2(c3ccc(O)cc3Oc3cc(O)ccc32)c2ccc(NC(=S)*)cc21
B1: FL-NLS: FITC-XRCC1 (241–276) (peptide)
peptide: {FITC}-SPKGKRKLDLNQEEKKTPSKPPAQLSPSVPKRPKLP
notes: human XRCC1 residues 241-276, the bipartite NLS; also called Full XRCC1 NLS ligand; FITC-labeled bipartite XRCC1 NLS; source: synthetic peptide, bought: Genscript
B2: M2: XRCC1 (268-276)-G-Lys-FITC (peptide)
peptide: SVPKRPKLPGK(FITC)
notes: added G-Lys that carries the FITC label; also called major motif ligand; major motif peptide; source: synthetic peptide, bought: Genscript
B3: NLS-E4: XRCC1(241–276)/(T257E/S259E/S266E/S268E) quadruple variant (peptide)
peptide: SPKGKRKLDLNQEEKKEPEKPPAQLEPEVPKRPKLP
notes: human XRCC1 residues 241-276 with four glutamate substitutions that mimic phosphorylation; also called NLS(T257E/S259E/S266E/S268E)

Experiments:
Conditions in all cases: both partners purified
[1] = molecular target: Impα(70–529)(W184R/W231R) (murine, UniProt P52293 70-529, W184R | W231R); assay: fluorescence polarisation; direct titration: serial dilutions of Impα into 100 nM FITC-labeled peptide; FP buffer (20 mM Tris pH 7.7, 125 mM NaCl, 1 mM EDTA, 2 mM TCEP, 5% sucrose, 10 mM NaN3); room temperature (legend: 25 °C); apparent dissociation constants, single-site fit
[2] = molecular target: T1, murine Importin α with the Importin β binding domain (IBB) deleted, Impα(70–529) (murine, UniProt P52293 70-529); assay: as above
[3] = molecular target: T1, murine Importin α with the Importin β …; assay: fluorescence polarisation; competition: serial dilutions of unlabeled peptide into 150 nM Impα(70–529) and 100 nM FITC-labeled FL-NLS peptide in FP buffer; fit to a competitive binding equation; apparent

Row | Kd [1] | Kd [2] | Kd [3] | Binder
1 | 7400 nM | 108 nM |  | B1
2 | 690000 nM | 2100 nM |  | B2
3 |  |  | 604 nM | B3

— paper PMC4548243, “Nuclear Localization of the DNA Repair Scaffold XRCC1: Uncovering the Functional Role of a Bipartite NLS” (Scientific Reports, 2015)
